Source: patent EP4640700A1 (Harbour Biomed (Shanghai) Co., Ltd, dated 2025)

How the values were obtained:
human B7H4 [1] = target: T1, human B7H4 (human, UniProt Q7Z7D3 25-282); assay: cell-based or functional assay
T1 sequence (looked up): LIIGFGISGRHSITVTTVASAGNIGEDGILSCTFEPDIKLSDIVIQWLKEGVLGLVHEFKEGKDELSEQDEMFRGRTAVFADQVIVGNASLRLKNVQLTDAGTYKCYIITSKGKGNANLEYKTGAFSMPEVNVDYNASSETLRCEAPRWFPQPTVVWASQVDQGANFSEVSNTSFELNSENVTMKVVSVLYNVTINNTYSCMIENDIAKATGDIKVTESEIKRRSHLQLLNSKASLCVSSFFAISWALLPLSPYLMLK

human B7H4 [2] = target: T1, human B7H4; assay: flow cytometry (FACS) on SK-BR-3 cells with high B7H4 expression
human serum albumin = target: T2, human serum albumin (human, UniProt P02768 25-609); assay: binding to human serum albumin, Fig. 19; method not described
T2 construct: Bought reagent; also called HSA
T2 sequence (P02768 25-609 limits assumed): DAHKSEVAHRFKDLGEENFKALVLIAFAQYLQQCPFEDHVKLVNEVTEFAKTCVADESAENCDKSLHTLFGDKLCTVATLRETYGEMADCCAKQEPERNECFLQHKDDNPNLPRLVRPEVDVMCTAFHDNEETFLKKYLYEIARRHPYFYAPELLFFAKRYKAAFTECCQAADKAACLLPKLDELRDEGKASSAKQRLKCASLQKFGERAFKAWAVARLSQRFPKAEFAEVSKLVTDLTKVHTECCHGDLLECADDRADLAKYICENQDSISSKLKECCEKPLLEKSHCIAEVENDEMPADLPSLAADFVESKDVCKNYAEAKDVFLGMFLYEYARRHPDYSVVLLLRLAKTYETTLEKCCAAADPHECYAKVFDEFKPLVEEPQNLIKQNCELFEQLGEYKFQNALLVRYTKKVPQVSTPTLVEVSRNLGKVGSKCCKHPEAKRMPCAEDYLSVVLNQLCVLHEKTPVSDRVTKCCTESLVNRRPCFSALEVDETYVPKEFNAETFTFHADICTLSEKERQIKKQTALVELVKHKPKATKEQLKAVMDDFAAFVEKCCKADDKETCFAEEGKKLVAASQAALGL

PSMA = PSMA (UniProt Q04609 1-750); assay: cell-based or functional assay
Sequence of PSMA (Q04609 whole entry): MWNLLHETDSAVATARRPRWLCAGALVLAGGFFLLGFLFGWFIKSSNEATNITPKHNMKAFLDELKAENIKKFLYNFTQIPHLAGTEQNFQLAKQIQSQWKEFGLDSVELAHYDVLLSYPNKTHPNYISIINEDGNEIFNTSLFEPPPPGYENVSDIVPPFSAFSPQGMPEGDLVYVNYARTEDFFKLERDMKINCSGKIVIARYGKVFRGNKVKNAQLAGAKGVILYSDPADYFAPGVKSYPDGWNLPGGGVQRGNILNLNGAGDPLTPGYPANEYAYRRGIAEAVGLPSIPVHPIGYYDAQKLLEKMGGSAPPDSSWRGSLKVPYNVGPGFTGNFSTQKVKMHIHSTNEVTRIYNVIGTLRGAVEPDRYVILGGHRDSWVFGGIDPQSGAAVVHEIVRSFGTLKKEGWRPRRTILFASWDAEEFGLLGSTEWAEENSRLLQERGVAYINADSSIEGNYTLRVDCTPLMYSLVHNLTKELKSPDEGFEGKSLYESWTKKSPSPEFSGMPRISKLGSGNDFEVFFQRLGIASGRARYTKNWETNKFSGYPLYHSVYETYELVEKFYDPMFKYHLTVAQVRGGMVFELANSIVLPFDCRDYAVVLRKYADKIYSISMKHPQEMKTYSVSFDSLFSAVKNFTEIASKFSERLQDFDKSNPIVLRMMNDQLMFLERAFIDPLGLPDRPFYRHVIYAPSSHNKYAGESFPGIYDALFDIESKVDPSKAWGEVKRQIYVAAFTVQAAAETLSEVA

BCMA = target: T3, BCMA (UniProt Q02223 1-184); assay: cell-based or functional assay
T3 sequence (looked up): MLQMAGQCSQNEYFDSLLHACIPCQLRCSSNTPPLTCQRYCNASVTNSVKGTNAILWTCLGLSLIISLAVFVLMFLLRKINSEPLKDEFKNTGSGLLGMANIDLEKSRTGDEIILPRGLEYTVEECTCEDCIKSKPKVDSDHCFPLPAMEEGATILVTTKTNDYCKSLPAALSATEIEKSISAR

human ROR1 = human ROR1 (human, UniProt Q01973 30-937); assay: cell-based or functional assay
Sequence of human ROR1 (Q01973 30-937): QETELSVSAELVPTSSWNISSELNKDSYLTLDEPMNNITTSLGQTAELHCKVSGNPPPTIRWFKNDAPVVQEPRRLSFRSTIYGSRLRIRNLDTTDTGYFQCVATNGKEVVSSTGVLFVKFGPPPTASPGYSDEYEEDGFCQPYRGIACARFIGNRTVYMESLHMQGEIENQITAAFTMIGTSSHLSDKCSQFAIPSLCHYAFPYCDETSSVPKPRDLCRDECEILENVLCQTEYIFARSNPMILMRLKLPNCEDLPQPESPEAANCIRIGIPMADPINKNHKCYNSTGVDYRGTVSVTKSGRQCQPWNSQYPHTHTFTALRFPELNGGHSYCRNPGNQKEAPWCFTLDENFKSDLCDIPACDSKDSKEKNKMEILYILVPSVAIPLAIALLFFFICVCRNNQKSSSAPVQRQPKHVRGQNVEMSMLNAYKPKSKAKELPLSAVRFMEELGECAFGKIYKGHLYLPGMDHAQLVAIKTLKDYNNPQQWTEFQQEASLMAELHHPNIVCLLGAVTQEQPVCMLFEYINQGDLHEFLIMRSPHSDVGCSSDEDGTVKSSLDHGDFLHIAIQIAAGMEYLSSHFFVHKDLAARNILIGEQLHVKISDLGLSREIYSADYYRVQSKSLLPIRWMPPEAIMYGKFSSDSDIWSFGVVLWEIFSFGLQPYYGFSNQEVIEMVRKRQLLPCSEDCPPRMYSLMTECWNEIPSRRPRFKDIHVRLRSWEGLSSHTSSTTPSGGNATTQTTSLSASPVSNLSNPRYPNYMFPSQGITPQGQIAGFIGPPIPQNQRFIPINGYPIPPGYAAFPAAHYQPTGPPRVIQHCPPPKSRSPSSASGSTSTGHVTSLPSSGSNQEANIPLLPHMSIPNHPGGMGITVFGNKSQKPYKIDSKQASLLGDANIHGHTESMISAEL

B1: PR000317 (bispecific antibody)
chain 1: EVQLVQSGAEVKKPGASVKVSCKASGYTFTSYWIGWVRQAPGQGLEWIGDIYPGGGYTNYNEKFKGRVTITRDTSTSTAYLELSSLRSEDTAVYYCARLAGSSYRGAMDSWGQGTLVTVSSASTKGPSVFPLAPSSKSTSGGTAALGCLVKDYFPEPVTVSWNSGALTSGVHTFPAVLQSSGLYSLSSVVTVPSSSLGTQTYICNVNHKPSNTKVDKKVEPKSC
chain 2: DIQMTQSPSSLSASVGDRVTITCKASQGFNKYVAWYQQKPGKAPKLLIYYTSTLQPGVPSRFSGSGSGRDYTLTISSLQPEDFATYYCLQYGDLLYAFGQGTKVEIKRTVAAPSVFIFPPSDEQLKSGTASVVCLLNNFYPREAKVQWKVDNALQSGNSQESVTEQDSKDSTYSLSSTLTLSKADYEKHKVYACEVTHQGLSSPVTKSFNRGECEVQLVESGGGLVQPKGSLKLSCAASGFTFNTYAMNWVRQAPGKGLEWVARIRSKYNNYATYYADSVKDRFTISRDDSQSILYLQMNNLKTEDTAMYYCVRHGNFGNSYVSWFAYWGQGTLVTVSAASTKGPSVFPLAPSSKSTSGGTAALGCLVKDYFPEPVTVSWNSGALTSGVHTFPAVLQSSGLYSLSSVVTVPSSSLGTQTYICNVNHKPSNTKVDKKVEPKSC
light: QAVVTQESALTTSPGETVTLTCRSSTGAVTTSNYANWVQEKPDHLFTGLIGGTNKRAPGVPARFSGSLIGDKAALTITGAQTEDEAIYFCALWYSNLWVFGGGTKLTVLGQPKAAPSVTLFPPSSEELQANKATLVCLISDFYPGAVTVAWKADSSPVKAGVETTTPSKQSNNKYAASSYLSLTPEQWKSHRSYSCQVTHEGSTVEKTVAPTECS
notes: Three-chain Fab-Fab without Fc; N-terminal Fab-A from PR000157 (anti-B7H4), C-terminal Fab-B from PR000260 (anti-CD3 SP34); also called Anti-B7H4xCD3 1D11-SP34 Fab-Fab; B7H4xCD3 "κ/λ" Fab-Fab antibody
Human B7H4 [1]
  Cell killing EC50: 1.8 pM
  Maximum killing rate (%): 33.9%
Human B7H4 [2]
  EC50: 22000 pM

B2: PR001325 (bispecific antibody)
chain 1: EVQLVQSGAEVKKPGASVKVSCKASGYTFTSYWIGWVRQAPGQGLEWIGDIYPGGGYTNYNEKFKGRVTITRDTSTSTAYLELSSLRSEDTAVYYCARLAGSSYRGAMDSWGQGTLVTVSSASTKGPSVFPLAPSSKSTSGGTAALGCLVKDYFPEPVTVSWNSGALTSGVHTFPAVLQSSGLYSLSSVVTVPSSSLGTQTYICNVNHKPSNTKVDKKVEPKSC
chain 2: DIQMTQSPSSLSASVGDRVTITCKASQGFNKYVAWYQQKPGKAPKLLIYYTSTLQPGVPSRFSGSGSGRDYTLTISSLQPEDFATYYCLQYGDLLYAFGQGTKVEIKRTVAAPSVFIFPPSDEQLKSGTASVVCLLNNFYPREAKVQWKVDNALQSGNSQESVTEQDSKDSTYSLSSTLTLSKADYEKHKVYACEVTHQGLSSPVTKSFNRGECEVQLVESGGGLVQPGGSLKLSCAASGFTFNTYAMNWVRQASGKGLEWVGRIRSKYNNYATYYADSVKDRFTISRDDSKSTLYLQMNSLKTEDTAVYYCVRHGNFGNSYVSWFAYWGQGTLVTVSSASTKGPSVFPLAPSSKSTSGGTAALGCLVKDYFPEPVTVSWNSGALTSGVHTFPAVLQSSGLYSLSSVVTVPSSSLGTQTYICNVNHKPSNTKVDKKVEPKSCGGGGSGGGGSEVQLLESGGGLVQPGGSLRLSCAASGFTFRSFGMSWVRQAPGKGPEWVSSISGSGSDTLYADSVKGRFTISRDNSKNTLYLQMNSLRPEDTAVYYCTIGGSLSRSSQGTLVTVSS
light: QAVVTQEPSLTVSPGGTVTLTCRSSTGAVTTSNYANWVQQKPGQAPRGLIGGTNKRAPWTPARFSGSLLGDKAALTLLGAQPEDEAEYFCALWYSNLWVFGGGTKLTVLGQPKAAPSVTLFPPSSEELQANKATLVCLISDFYPGAVTVAWKADSSPVKAGVETTTPSKQSNNKYAASSYLSLTPEQWKSHRSYSCQVTHEGSTVEKTVAPTECS
notes: no Fc; also called anti-B7H4xCD3 1D11C2-hzSP34_PR512 Fab-Fab-(G4S)2-Alb23; B7H4xCD3xALB trispecific antibody
Human serum albumin
  binding result: binds

B3: PR001197 (bispecific antibody)
chain 1: QVQLVESGGGLVKPGESLRLSCAASGFTFSDYYMYWVRQAPGKGLEWVAIISDGGYYTYYSDIIKGRFTISRDNAKNSLYLQMNSLKAEDTAVYYCARGFPLLRHGAMDYWGQGTLVTVSSASTKGPSVFPLAPSSKSTSGGTAALGCLVKDYFPEPVTVSWNSGALTSGVHTFPAVLQSSGLYSLSSVVTVPSSSLGTQTYICNVNHKPSNTKVDKKVEPKSC
chain 2: DIQMTQSPSSLSASVGDRVTITCKASQNVDTNVAWYQQKPGQAPKSLIYSASYRYSDVPSRFSGSASGTDFTLTISSVQSEDFATYYCQQYDSYPYTFGGGTKLEIKRTVAAPSVFIFPPSDEQLKSGTASVVCLLNNFYPREAKVQWKVDNALQSGNSQESVTEQDSKDSTYSLSSTLTLSKADYEKHKVYACEVTHQGLSSPVTKSFNRGECEVQLVESGGGLVQPGGSLKLSCAASGFTFNTYAMNWVRQASGKGLEWVGRIRSKYNNYATYYADSVKDRFTISRDDSKSTLYLQMNSLKTEDTAVYYCVRHGNFGNSYVSWFAYWGQGTLVTVSSASTKGPSVFPLAPSSKSTSGGTAALGCLVKDYFPEPVTVSWNSGALTSGVHTFPAVLQSSGLYSLSSVVTVPSSSLGTQTYICNVNHKPSNTKVDKKVEPKSC
light: QAVVTQEPSLTVSPGGTVTLTCRSSTGAVTTSNYANWVQQKPGQAPRGLIGGTNKRAPWTPARFSGSLLGDKAALTLLGAQPEDEAEYFCALWYSNLWVFGGGTKLTVLGQPKAAPSVTLFPPSSEELQANKATLVCLISDFYPGAVTVAWKADSSPVKAGVETTTPSKQSNNKYAASSYLSLTPEQWKSHRSYSCQVTHEGSTVEKTVAPTECS
PSMA
  Cell killing EC50: 143 pM
  Maximum killing rate (%): 52.4%

B4: PR001198 (bispecific antibody)
chain 1: QVQLVQSGAEVKKPGSSVKVSCKASGGTFSNYWMHWVRQAPGQGLEWMGATYRGHSDTYYNQKFKGRVTITADKSTSTAYMELSSLRSEDTAVYYCARGAIYDGYDVLDNWGQGTLVTVSSASTKGPSVFPLAPSSKSTSGGTAALGCLVKDYFPEPVTVSWNSGALTSGVHTFPAVLQSSGLYSLSSVVTVPSSSLGTQTYICNVNHKPSNTKVDKKVEPKSC
chain 2: not shown
light: QAVVTQEPSLTVSPGGTVTLTCRSSTGAVTTSNYANWVQQKPGQAPRGLIGGTNKRAPWTPARFSGSLLGDKAALTLLGAQPEDEAEYFCALWYSNLWVFGGGTKLTVLGQPKAAPSVTLFPPSSEELQANKATLVCLISDFYPGAVTVAWKADSSPVKAGVETTTPSKQSNNKYAASSYLSLTPEQWKSHRSYSCQVTHEGSTVEKTVAPTECS
BCMA
  Cell killing EC50: 17.8 pM
  Maximum killing rate (%): 61.3%

B5: PR001200 (bispecific antibody)
chain 1: EVQLVESGGGLVQPGRSLRLSCTASGSDINDYPITWVRQAPGQGLEWIGFINSGGSTWYASWVKGRFTISRDDSKSIAYLQMNSLKTEDTAVYYCARGYSTYYRDFNIWGQGTLVTVSSASTKGPSVFPLAPSSKSTSGGTAALGCLVKDYFPEPVTVSWNSGALTSGVHTFPAVLQSSGLYSLSSVVTVPSSSLGTQTYICNVNHKPSNTKVDKKVEPKSC
chain 2: DIQMTQSPSSLSASVGDRVTINCQASQSIDSNLAWFQQKPGQPPKLLIYRASNLASGVPDRFSGSGSGTDFTLTISSLEAEDVATYYCLGGVGAVSYRTSFGGGTKVEIKRTVAAPSVFIFPPSDEQLKSGTASVVCLLNNFYPREAKVQWKVDNALQSGNSQESVTEQDSKDSTYSLSSTLTLSKADYEKHKVYACEVTHQGLSSPVTKSFNRGECEVQLVESGGGLVQPGGSLKLSCAASGFTFNTYAMNWVRQASGKGLEWVGRIRSKYNNYATYYADSVKDRFTISRDDSKSTLYLQMNSLKTEDTAVYYCVRHGNFGNSYVSWFAYWGQGTLVTVSSASTKGPSVFPLAPSSKSTSGGTAALGCLVKDYFPEPVTVSWNSGALTSGVHTFPAVLQSSGLYSLSSVVTVPSSSLGTQTYICNVNHKPSNTKVDKKVEPKSC
light: QAVVTQEPSLTVSPGGTVTLTCRSSTGAVTTSNYANWVQQKPGQAPRGLIGGTNKRAPWTPARFSGSLLGDKAALTLLGAQPEDEAEYFCALWYSNLWVFGGGTKLTVLGQPKAAPSVTLFPPSSEELQANKATLVCLISDFYPGAVTVAWKADSSPVKAGVETTTPSKQSNNKYAASSYLSLTPEQWKSHRSYSCQVTHEGSTVEKTVAPTECS
Human ROR1
  Cell killing EC50: 1160 pM
  Maximum killing rate (%): 54.8%

B6: PR000929 (VHH)
VHH: EVQLLESGGGLVQPGGSLRLSCAASGFTFRSFGMSWVRQAPGKGPEWVSSISGSGSDTLYADSVKGRFTISRDNSKNTLYLQMNSLRPEDTAVYYCTIGGSLSRSSQGTLVTVSS
notes: Humanized single-domain antibody, no Fc; also called anti-HSA Alb23-his; single-domain antibody Alb23
Human serum albumin
  binding result: binds
